Laboratory results as given in patent publication US20220010021A1 (Sanofi, published 2022).
Numbering of substitutions follows the chain as printed.

T1: human beta-Klotho (KLB) (human, UniProt Q86Z14 53-997)
T1 construct: Bought protein; also called human KLB; β-Klotho
T1 sequence (looked up): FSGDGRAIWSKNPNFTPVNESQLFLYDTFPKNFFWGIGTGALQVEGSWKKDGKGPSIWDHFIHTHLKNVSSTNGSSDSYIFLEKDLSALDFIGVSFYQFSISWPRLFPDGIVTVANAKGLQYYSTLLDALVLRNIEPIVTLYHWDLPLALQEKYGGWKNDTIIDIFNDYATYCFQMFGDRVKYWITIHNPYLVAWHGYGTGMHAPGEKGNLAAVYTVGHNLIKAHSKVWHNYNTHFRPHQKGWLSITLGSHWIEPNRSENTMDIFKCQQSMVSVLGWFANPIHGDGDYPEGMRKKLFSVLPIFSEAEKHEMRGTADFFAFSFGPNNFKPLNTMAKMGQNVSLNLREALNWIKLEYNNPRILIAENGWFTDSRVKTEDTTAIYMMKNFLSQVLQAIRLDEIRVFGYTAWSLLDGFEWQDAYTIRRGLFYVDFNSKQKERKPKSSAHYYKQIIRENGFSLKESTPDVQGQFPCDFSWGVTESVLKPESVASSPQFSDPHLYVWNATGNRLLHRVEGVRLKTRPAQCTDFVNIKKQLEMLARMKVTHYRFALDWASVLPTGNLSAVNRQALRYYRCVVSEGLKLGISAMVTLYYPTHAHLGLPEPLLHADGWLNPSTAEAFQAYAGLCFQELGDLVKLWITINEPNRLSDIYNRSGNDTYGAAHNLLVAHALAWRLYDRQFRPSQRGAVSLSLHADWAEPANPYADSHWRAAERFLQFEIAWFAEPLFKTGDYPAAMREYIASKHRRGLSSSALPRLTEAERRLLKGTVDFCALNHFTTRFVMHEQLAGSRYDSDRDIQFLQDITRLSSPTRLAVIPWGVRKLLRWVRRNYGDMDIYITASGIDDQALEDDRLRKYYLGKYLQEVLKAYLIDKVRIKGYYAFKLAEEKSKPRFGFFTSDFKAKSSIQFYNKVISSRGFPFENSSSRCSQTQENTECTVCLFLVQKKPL

B1: 16H7 light chain variant D50C (antibody, IgG4, V domains shown)
VH: not shown
VL: SYVLTQPPSVSVAPGQTARITCGGNNIGSESVHWYQQKPGQAPVLVVYDCSDRPSGIPERFSGSNSGNTATLTISRVEAGDEADYYCQVWDGNSDHVVFGGGTKLTVLG
notes: IgG4 backbone
B2: 16H7 light chain variant H33F (antibody, IgG4, V domains shown)
VH: not shown
VL: B1 VL with H33F, C50D
notes: IgG4 backbone
B3: 16H7 light chain variant D50F (antibody, IgG4, V domains shown)
VH: not shown
VL: B1 VL with C50F
notes: IgG4 backbone
B4: 16H7 light chain variant D50I (antibody, IgG4, V domains shown)
VH: not shown
VL: B1 VL with C50I
notes: IgG4 backbone
B5: 16H7 light chain variant H33G (antibody, IgG4, V domains shown)
VH: not shown
VL: B1 VL with H33G, C50D
notes: IgG4 backbone
B6: 16H7 light chain variant D95Y (antibody, IgG4, V domains shown)
VH: not shown
VL: B1 VL with C50D, D95Y
notes: IgG4 backbone
B7: 16H7 light chain variant D50T (antibody, IgG4, V domains shown)
VH: not shown
VL: B1 VL with C50T
notes: IgG4 backbone
B8: 16H7 light chain variant H33M (antibody, IgG4, V domains shown)
VH: not shown
VL: B1 VL with H33M, C50D
notes: IgG4 backbone
B9: 16H7 light chain variant D50Q (antibody, IgG4, V domains shown)
VH: not shown
VL: B1 VL with C50Q
notes: IgG4 backbone
B10: 16H7 light chain variant D50V (antibody, IgG4, V domains shown)
VH: not shown
VL: B1 VL with C50V
notes: IgG4 backbone
B11: 16H7 light chain variant D95I (antibody, IgG4, V domains shown)
VH: not shown
VL: B1 VL with C50D, D95I
notes: IgG4 backbone
B12: 16H7 light chain variant D50G (antibody, IgG4, V domains shown)
VH: not shown
VL: B1 VL with C50G
notes: IgG4 backbone
B13: 16H7 light chain variant D95M (antibody, IgG4, V domains shown)
VH: not shown
VL: B1 VL with C50D, D95M
notes: IgG4 backbone
B14: 16H7 light chain variant D95A (antibody, IgG4, V domains shown)
VH: not shown
VL: B1 VL with C50D, D95A
notes: IgG4 backbone
B15: 16H7 light chain variant H33L (antibody, IgG4, V domains shown)
VH: not shown
VL: B1 VL with H33L, C50D
notes: IgG4 backbone
B16: 16H7 light chain variant D50Y (antibody, IgG4, V domains shown)
VH: not shown
VL: B1 VL with C50Y
notes: IgG4 backbone
B17: 16H7 light chain variant D50L (antibody, IgG4, V domains shown)
VH: not shown
VL: B1 VL with C50L
notes: IgG4 backbone
B18: 16H7 light chain variant D50E (antibody, IgG4, V domains shown)
VH: not shown
VL: B1 VL with C50E
notes: IgG4 backbone
B19: 16H7 light chain variant D50M (antibody, IgG4, V domains shown)
VH: not shown
VL: B1 VL with C50M
notes: IgG4 backbone
B20: 16H7 light chain variant H33E (antibody, IgG4, V domains shown)
VH: not shown
VL: B1 VL with H33E, C50D
notes: IgG4 backbone
B21: 16H7 light chain variant H33I (antibody, IgG4, V domains shown)
VH: not shown
VL: B1 VL with H33I, C50D
notes: IgG4 backbone
B22: 16H7 light chain variant H33A (antibody, IgG4, V domains shown)
VH: not shown
VL: B1 VL with H33A, C50D
notes: IgG4 backbone
B23: 16H7 light chain variant H33Q (antibody, IgG4, V domains shown)
VH: not shown
VL: B1 VL with H33Q, C50D
notes: IgG4 backbone
B24: 16H7 light chain variant H33N (antibody, IgG4, V domains shown)
VH: not shown
VL: B1 VL with H33N, C50D
notes: IgG4 backbone
B25: 16H7 light chain variant H33C (antibody, IgG4, V domains shown)
VH: not shown
VL: B1 VL with H33C, C50D
notes: IgG4 backbone
B26: 16H7 light chain variant D50W (antibody, IgG4, V domains shown)
VH: not shown
VL: B1 VL with C50W
notes: IgG4 backbone
B27: 16H7 light chain variant H33D (antibody, IgG4, V domains shown)
VH: not shown
VL: B1 VL with H33D, C50D
notes: IgG4 backbone
B28: 16H7 light chain variant D50S (antibody, IgG4, V domains shown)
VH: not shown
VL: B1 VL with C50S
notes: IgG4 backbone
B29: 16H7 light chain variant D95H (antibody, IgG4, V domains shown)
VH: not shown
VL: B1 VL with C50D, D95H
notes: IgG4 backbone
B30: 16H7 light chain variant D50H (antibody, IgG4, V domains shown)
VH: not shown
VL: B1 VL with C50H
notes: IgG4 backbone
B31: 16H7 light chain variant D50R (antibody, IgG4, V domains shown)
VH: not shown
VL: B1 VL with C50R
notes: IgG4 backbone

Assays:
[1] = target: cell surface receptor composed of FGFR1c and co-receptor beta-Klotho (KLB) (human, UniProt P11362 22-822; Q86Z14 1-1044); test: cell-based or functional assay; as to Mean E max, Luciferase reporter gene assay: reference of the scale not given here
cell surface receptor composed of FGFR1c and co-receptor beta-Klotho (KLB), sequence (P11362 22-822, chain 1 of 2): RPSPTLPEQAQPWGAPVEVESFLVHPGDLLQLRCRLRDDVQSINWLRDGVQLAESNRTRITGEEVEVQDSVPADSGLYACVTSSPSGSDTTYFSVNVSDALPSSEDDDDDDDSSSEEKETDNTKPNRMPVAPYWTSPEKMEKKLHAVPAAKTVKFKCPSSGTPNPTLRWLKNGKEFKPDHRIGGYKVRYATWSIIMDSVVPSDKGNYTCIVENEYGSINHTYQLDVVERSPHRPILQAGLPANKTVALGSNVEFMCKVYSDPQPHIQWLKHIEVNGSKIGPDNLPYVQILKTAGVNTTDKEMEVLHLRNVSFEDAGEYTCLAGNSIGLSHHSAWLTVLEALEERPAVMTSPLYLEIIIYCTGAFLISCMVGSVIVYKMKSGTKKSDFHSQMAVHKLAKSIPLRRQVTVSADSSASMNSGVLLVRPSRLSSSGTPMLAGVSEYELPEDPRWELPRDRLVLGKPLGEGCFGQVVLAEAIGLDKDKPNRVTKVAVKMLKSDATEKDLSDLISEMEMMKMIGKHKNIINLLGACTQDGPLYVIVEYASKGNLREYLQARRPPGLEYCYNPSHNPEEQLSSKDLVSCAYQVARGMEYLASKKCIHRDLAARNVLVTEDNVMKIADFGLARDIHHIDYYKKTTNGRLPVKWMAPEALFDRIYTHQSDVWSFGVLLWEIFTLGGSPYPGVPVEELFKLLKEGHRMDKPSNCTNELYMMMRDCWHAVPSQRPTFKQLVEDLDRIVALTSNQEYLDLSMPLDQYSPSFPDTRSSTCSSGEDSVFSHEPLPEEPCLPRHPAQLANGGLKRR
cell surface receptor composed of FGFR1c and co-receptor beta-Klotho (KLB), sequence (Q86Z14 whole entry, chain 2 of 2): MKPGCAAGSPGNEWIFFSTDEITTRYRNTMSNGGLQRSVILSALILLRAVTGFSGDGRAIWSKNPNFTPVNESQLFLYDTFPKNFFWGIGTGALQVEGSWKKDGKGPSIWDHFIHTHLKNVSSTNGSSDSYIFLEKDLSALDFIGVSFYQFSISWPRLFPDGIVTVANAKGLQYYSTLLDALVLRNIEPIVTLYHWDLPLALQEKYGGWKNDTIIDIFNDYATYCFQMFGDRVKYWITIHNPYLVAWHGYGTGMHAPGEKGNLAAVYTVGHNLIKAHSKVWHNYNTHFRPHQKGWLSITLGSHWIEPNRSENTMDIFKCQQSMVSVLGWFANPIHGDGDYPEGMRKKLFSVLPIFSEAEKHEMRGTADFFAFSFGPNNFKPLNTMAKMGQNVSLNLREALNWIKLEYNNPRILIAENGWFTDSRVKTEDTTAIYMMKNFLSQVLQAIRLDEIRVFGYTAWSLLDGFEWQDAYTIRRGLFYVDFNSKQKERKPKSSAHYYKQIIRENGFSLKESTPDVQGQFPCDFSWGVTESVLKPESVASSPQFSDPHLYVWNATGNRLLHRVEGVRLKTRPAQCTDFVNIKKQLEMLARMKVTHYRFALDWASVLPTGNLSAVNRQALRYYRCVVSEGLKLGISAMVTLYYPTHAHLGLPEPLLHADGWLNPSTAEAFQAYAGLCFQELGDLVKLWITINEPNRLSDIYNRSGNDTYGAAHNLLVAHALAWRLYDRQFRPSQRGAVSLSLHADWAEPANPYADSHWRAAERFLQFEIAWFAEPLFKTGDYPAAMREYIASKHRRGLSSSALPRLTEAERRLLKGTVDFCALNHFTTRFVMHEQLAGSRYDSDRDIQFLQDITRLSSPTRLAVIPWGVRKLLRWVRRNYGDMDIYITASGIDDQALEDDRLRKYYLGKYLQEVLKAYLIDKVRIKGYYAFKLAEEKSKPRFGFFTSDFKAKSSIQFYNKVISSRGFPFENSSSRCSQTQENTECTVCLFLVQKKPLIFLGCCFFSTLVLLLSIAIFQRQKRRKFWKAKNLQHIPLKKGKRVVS

human beta-Klotho (KLB) = target: T1, human beta-Klotho (KLB); test: BLI off-rate screening (Octet), crude supernatant;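 also: supernatants tested at 25 µg/mL, dissociation from biosensors recorded in D-PBS with 0.1% BSA over 1800 s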

| Binder | Mean E max, Luciferase reporter gene assay [1] [%] | Mean EC50, Luciferase reporter gene assay [1] [nM] | koff (human beta-Klotho (KLB)) [s⁻¹] |
| --- | --- | --- | --- |
| B1 | 109 | 0.153 | 3.9e-05 |
| B2 | 113 | 0.122 | 0.0001 |
| B3 | 113 | 0.124 | 0.0001 |
| B4 | 109 | 0.114 | 8.2e-05 |
| B5 | 102 | 0.12 | 9.6e-05 |
| B6 | 4 | – | 0.00013 |
| B7 | 104 | 0.12 | 3.9e-05 |
| B8 | 102 | 0.107 | 5.2e-05 |
| B9 | 107 | 0.171 | 7.9e-05 |
| B10 | 105 | 0.106 | 2.2e-05 |
| B11 | 4 | – | 0.00016 |
| B12 | 107 | 0.136 | 1.7e-05 |
| B13 | 8 | – | 1.4e-05 |
| B14 | 12 | – | 0.0002 |
| B15 | 114 | 0.115 | 5.5e-05 |
| B16 | 113 | 0.157 | 0.00016 |

| Binder | Mean E max, Luciferase reporter gene assay [1] [%] | Mean EC50, Luciferase reporter gene assay [1] [nM] | koff (human beta-Klotho (KLB)) [s⁻¹] |
| --- | --- | --- | --- |
| B17 | 106 | 0.095 | 0.00013 |
| B18 | 91 | 0.123 | 0.00016 |
| B19 | 110 | 0.125 | 0.00013 |
| B20 | 100 | 0.121 | 3.6e-05 |
| B21 | 104 | 0.121 | 9.7e-05 |
| B22 | 96 | 0.121 | 0.00013 |
| B23 | 101 | 0.131 | 4.4e-05 |
| B24 | 113 | 0.165 | 0.00011 |
| B25 | 108 | 0.123 | 6.8e-05 |
| B26 | 108 | 0.145 | 0.00017 |
| B27 | 99 | 0.166 | 6.8e-05 |
| B28 | 100 | 0.118 | 4.1e-06 |
| B29 | 33 | 29.7 | 8.1e-06 |
| B30 | 94 | 0.126 | 0.00019 |
| B31 | 110 | 0.122 | 0.00013 |
